Laboratory results published in US20190010233A1 (JIANGSU HYAMAB PHARMACEUTICAL, published 2019).
Like-named read-outs stand apart in the source and are kept apart here. Blank lines part the entries; values can stand above or below the binder they belong to.

Tests used:
[1] = molecular target: T1, full length human PD-L1 on cells (human, UniProt Q9NZQ7 19-290); test: cell-based or functional assay
[2] = molecular target: T2, full length cyno PD-L1 on cells (cyno, UniProt G7PSE7 19-290); test: FACS CHO-K1-cPD-L1, 300 nM mAb
T2 construct: also called CHO-K1-cPD-L1
T2 sequence (G7PSE7 entry or part of it limits assumed): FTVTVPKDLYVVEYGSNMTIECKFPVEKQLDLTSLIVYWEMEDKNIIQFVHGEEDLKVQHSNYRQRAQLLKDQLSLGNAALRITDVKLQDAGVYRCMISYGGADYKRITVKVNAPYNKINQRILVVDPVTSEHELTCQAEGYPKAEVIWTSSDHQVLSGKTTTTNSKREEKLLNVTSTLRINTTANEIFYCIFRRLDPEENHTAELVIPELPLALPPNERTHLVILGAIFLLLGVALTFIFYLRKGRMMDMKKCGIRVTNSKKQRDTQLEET

[3] = molecular target: T3, human PD-L1^ECD-hFc protein (human, UniProt Q9NZQ7 19-239, biotinylated in the PD-1 binding ELISA (Table 3) and in the Octet assay (Table 12)); test: ELISA receptor-ligand blocking assay: PD-L1 protein coated, fully human antibody titrated, blocked ligand PD-1, inhibition rate (%)
T3 construct: The plain and the biotinylated protein are kept as one molecule; also called PD-L1-hFc; Immunogen A; not shown: human IgG Fc fragment (hFc)
T3 sequence (Q9NZQ7 19-239): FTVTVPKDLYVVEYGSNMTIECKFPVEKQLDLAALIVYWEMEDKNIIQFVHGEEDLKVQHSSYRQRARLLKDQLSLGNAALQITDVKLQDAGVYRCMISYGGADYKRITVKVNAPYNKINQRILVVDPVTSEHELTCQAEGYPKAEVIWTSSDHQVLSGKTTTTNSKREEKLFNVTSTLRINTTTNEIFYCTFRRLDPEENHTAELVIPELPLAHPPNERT

[4] = molecular target: T2, full length cyno PD-L1 on cells; test: FACS CHO-K1-cPD-L1, 0.03 nM mAb
[5] = molecular target: T2, full length cyno PD-L1 on cells; test: FACS CHO-K1-cPD-L1, 3 nM mAb
[6] = molecular target: T1, full length human PD-L1 on cells; test: FACS CHOK1-hPD-L1, 0.3 nM mAb
[7] = molecular target: T2, full length cyno PD-L1 on cells; test: FACS CHO-K1-cPD-L1, 0.003 nM mAb
[8] = molecular target: T1, full length human PD-L1 on cells; test: cell-based or functional assay; remark: listed apart in the source
[9] = molecular target: T1, full length human PD-L1 on cells; test: FACS CHOK1-hPD-L1, 3 nM mAb
[10] = molecular target: T1, full length human PD-L1 on cells; test: FACS CHOK1-hPD-L1, 300 nM mAb
[11] = molecular target: T2, full length cyno PD-L1 on cells; test: FACS CHO-K1-cPD-L1, 30 nM mAb
[12] = molecular target: T2, full length cyno PD-L1 on cells; test: FACS CHO-K1-cPD-L1, 0.0003 nM mAb
[13] = molecular target: T1, full length human PD-L1 on cells; test: FACS CHOK1-hPD-L1, 0.0003 nM mAb
[14] = molecular target: T3, human PD-L1^ECD-hFc protein; test: ELISA receptor-ligand blocking assay: PD-L1 protein coated, fully human antibody titrated, blocked ligand B7.1, inhibition rate (%)
[15] = molecular target: T1, full length human PD-L1 on cells; test: FACS CHOK1-hPD-L1, 30 nM mAb
[16] = molecular target: T1, full length human PD-L1 on cells; test: cell-based or functional assay; remark: listed apart in the source
[17] = molecular target: T4, recombinant His-tagged hPD-L1 ECD protein (human, UniProt Q9NZQ7 19-239); test: SPR Biacore T200, mAb captured by anti-human Fc, His-tagged hPD-L1 ECD as analyte, 1:1 model
T4 construct: also called His-tagged human PD-L1 ECD protein; His-tagged PD-L1^ECD; not shown: His tag
T4 sequence (Q9NZQ7 19-239): as above
Procedure: Anti-human Fc IgG was immobilized on flow cells 1 and 2: HBS-EP+ (10 mM HEPES, 150 mM NaCl, 3 mM EDTA, 0.05% P20, pH 7.4) was used as miming buffer, and the immobilization of anti-human Fc IgG was carried out using the immobilization wizard template. Flow cells 1 and 2 of a Series S CM5 sensor chip were activated with freshly-mixed 50 mmol/L NHS and 200 mmol/L EDC. 20 μg/mL of anti-human Fc IgG diluted in 10 mM NaAC (pH 4.5) was injected into the activated flow cells 1 and 2. The remaining active coupling sites were blocked with 1M ethanolamine.
KD measurements were carried out with HBS-EP+ as the running buffer. Each antibody was injected over the CM5 sensor flow cell 2 with a flow rate of 10 μL/min to reach response 230 RU. […] Buffer flow was maintained for 400 seconds for dissociation measurements (30 μL/min). To remove the tested antibody from the surface, 10 mM glycine-HCl pH 1.5 was injected for 20 seconds (30 μL/min). Flow cell 1 was used as reference flow cell. The above steps were repeated for each concentration of serially-diluted His-tagged PD-L1^ECD protein. The KD value for each antibody was evaluated using Biacore T200 evaluation software 1.0, and the data was fit with a 1:1 binding model.

[18] = molecular target: T1, full length human PD-L1 on cells; test: FACS CHOK1-hPD-L1, 0.003 nM mAb
[19] = molecular target: T2, full length cyno PD-L1 on cells; test: FACS CHO-K1-cPD-L1, 0.3 nM mAb
[20] = molecular target: T1, full length human PD-L1 on cells; test: FACS CHOK1-hPD-L1, 0.03 nM mAb
[21] = molecular target: T1, full length human PD-L1 on cells; test: cell-based or functional assay; remark: listed apart in the source
[22] = molecular target: T1, full length human PD-L1 on cells; test: cell-based or functional assay; remark: listed apart in the source

T1 sequence (Q9NZQ7 19-290 limits assumed): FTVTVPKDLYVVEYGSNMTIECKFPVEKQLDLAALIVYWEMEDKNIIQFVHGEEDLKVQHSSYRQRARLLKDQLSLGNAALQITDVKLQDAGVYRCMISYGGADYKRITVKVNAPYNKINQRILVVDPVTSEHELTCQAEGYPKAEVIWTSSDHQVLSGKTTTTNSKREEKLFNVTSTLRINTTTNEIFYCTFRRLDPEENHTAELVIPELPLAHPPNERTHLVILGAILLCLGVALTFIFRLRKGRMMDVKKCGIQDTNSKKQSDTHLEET

- IFN-γ (pg/mL), MLR, 0.001 µg/mL mAb [1]: 1080 pg/mL
- IFN-γ (pg/mL), MLR, 0.01 µg/mL mAb [1]: 1650 pg/mL
- IFN-γ (pg/mL), MLR, 0.1 µg/mL mAb [1]: 3010 pg/mL
- IFN-γ (pg/mL), MLR, 1 µg/mL mAb [1]: 3760 pg/mL
- IFN-γ (pg/mL), MLR, 10 µg/mL mAb [1]: 3400 pg/mL
- Mean fluorescence intensity [2]: 538
- IC50 (read off the curve) [3]: ~0.7 nM
- Mean fluorescence intensity [4]: 64.1
- Mean fluorescence intensity [5]: 521
- Mean fluorescence intensity [6]: 217
- Mean fluorescence intensity [7]: 8.94
- IFN-γ (pg/mL), T cell stimulation assay, 0.001 µg/mL mAb [8]: 4030 pg/mL
- IFN-γ (pg/mL), T cell stimulation assay, 0.01 µg/mL mAb [8]: 9200 pg/mL
- IFN-γ (pg/mL), T cell stimulation assay, 0.1 µg/mL mAb [8]: 9840 pg/mL
- IFN-γ (pg/mL), T cell stimulation assay, 1 µg/mL mAb [8]: 9960 pg/mL
- IFN-γ (pg/mL), T cell stimulation assay, 10 µg/mL mAb [8]: 12500 pg/mL
- Mean fluorescence intensity [9]: 619
- Mean fluorescence intensity [10]: 633
- Mean fluorescence intensity [11]: 529
- Mean fluorescence intensity [12]: 5.47
- Mean fluorescence intensity [13]: 6.53
- IC50 (read off the curve) [14]: ~0.7 nM
- Mean fluorescence intensity [15]: 620
- IL-2 (pg/mL), MLR, 0.001 µg/mL mAb [16]: 210 pg/mL
- IL-2 (pg/mL), MLR, 0.01 µg/mL mAb [16]: 283 pg/mL
- IL-2 (pg/mL), MLR, 0.1 µg/mL mAb [16]: 730 pg/mL
- IL-2 (pg/mL), MLR, 1 µg/mL mAb [16]: 736 pg/mL
- IL-2 (pg/mL), MLR, 10 µg/mL mAb [16]: 842 pg/mL
- Kd [17]: 0.643 nM
- koff [17]: 0.000472 s⁻¹
- kon [17]: 734000 M⁻¹ s⁻¹
- Mean fluorescence intensity [18]: 10.4
- Mean fluorescence intensity [19]: 243
- Mean fluorescence intensity [20]: 36.5
B1: fully human anti-PD-L1 antibody 78A11F6 (antibody, human IgG4 S228P, kappa, V domains shown)
VH: EVQLVESGGGLVQPGGSLRLSCAASGITFSSYWMSWVRQTPGKGLEWVANIKQDGSEKYYVKSVKGRFTISRDNAKNSLYLQMNSLRAEDTAVYYCVRDRAVPGTGAFDIWGQGTMVIVSS
VL: DIQMTQSPSTLSASVGDRVTITCRASQSISNWLAWYQQKPGKAPKLLIYKASSLESGVPSRFSGSGSGTEFTLTISSLQPDDFATYYCQQYDSSLFTFGQGTKLEIKR
notes: also called 78A11F6 (fully human)

- IFN-γ (pg/mL), MLR, 0.001 µg/mL mAb [1]: 957 pg/mL
- IFN-γ (pg/mL), MLR, 0.01 µg/mL mAb [1]: 1080 pg/mL
- IFN-γ (pg/mL), MLR, 0.1 µg/mL mAb [1]: 1990 pg/mL
- IFN-γ (pg/mL), MLR, 1 µg/mL mAb [1]: 3040 pg/mL
- IFN-γ (pg/mL), MLR, 10 µg/mL mAb [1]: 2590 pg/mL
- Mean fluorescence intensity [2]: 512
- IC50 (read off the curve) [3]: ~1 nM
- Mean fluorescence intensity [4]: 26.2
- IFN-γ (pg/mL), MLR, 0.001 µg/mL mAb [21]: 12500 pg/mL
- IFN-γ (pg/mL), MLR, 0.01 µg/mL mAb [21]: 10000 pg/mL
- IFN-γ (pg/mL), MLR, 0.1 µg/mL mAb [21]: 21000 pg/mL
- IFN-γ (pg/mL), MLR, 1 µg/mL mAb [21]: 21500 pg/mL
- IFN-γ (pg/mL), MLR, 10 µg/mL mAb [21]: 21400 pg/mL
- Mean fluorescence intensity [5]: 495
- Mean fluorescence intensity [6]: 193
- Mean fluorescence intensity [7]: 7.84
- IFN-γ (pg/mL), T cell stimulation assay, 0.001 µg/mL mAb [8]: 4450 pg/mL
- IFN-γ (pg/mL), T cell stimulation assay, 0.01 µg/mL mAb [8]: 10600 pg/mL
- IFN-γ (pg/mL), T cell stimulation assay, 0.1 µg/mL mAb [8]: 12300 pg/mL
- IFN-γ (pg/mL), T cell stimulation assay, 1 µg/mL mAb [8]: 12300 pg/mL
- IFN-γ (pg/mL), T cell stimulation assay, 10 µg/mL mAb [8]: 14000 pg/mL
- Mean fluorescence intensity [9]: 576
- Mean fluorescence intensity [10]: 602
- Mean fluorescence intensity [11]: 519
- Mean fluorescence intensity [12]: 4.87
- Mean fluorescence intensity [13]: 4.68
- IC50 (read off the curve) [14]: ~1 nM
- Mean fluorescence intensity [15]: 595
- IL-2 (pg/mL), MLR, 0.001 µg/mL mAb [22]: 59.7 pg/mL
- IL-2 (pg/mL), MLR, 0.01 µg/mL mAb [22]: 83.4 pg/mL
- IL-2 (pg/mL), MLR, 0.1 µg/mL mAb [22]: 114 pg/mL
- IL-2 (pg/mL), MLR, 1 µg/mL mAb [22]: 139 pg/mL
- IL-2 (pg/mL), MLR, 0.001 µg/mL mAb [16]: 205 pg/mL
- IL-2 (pg/mL), MLR, 0.01 µg/mL mAb [16]: 218 pg/mL
- IL-2 (pg/mL), MLR, 0.1 µg/mL mAb [16]: 563 pg/mL
- IL-2 (pg/mL), MLR, 1 µg/mL mAb [16]: 716 pg/mL
- IL-2 (pg/mL), MLR, 10 µg/mL mAb [16]: 791 pg/mL
- Kd [17]: 0.536 nM
- koff [17]: 0.000757 s⁻¹
- kon [17]: 1.41e+06 M⁻¹ s⁻¹
- Mean fluorescence intensity [18]: 7.6
- Mean fluorescence intensity [19]: 174
- Mean fluorescence intensity [20]: 28.6
B2: fully human anti-PD-L1 antibody 73D3G2 (antibody, human IgG4 S228P, kappa, V domains shown)
VH: EVQLVESGGGLVQPGGSLRLSCAASGFTFNTYWMNWVRQAPGRGLEWVANIKQDGGEKYYVDSVKGRFTISRDNAKNSLYLQMNSLRAEDTAMYYCARDGRSWYPDAFDIWGQGTVVTVSS
VL: DIQMTQSPSTLSASVGDRVTITCRASQSISTWLAWYQQKLGKAPKLLIYEVSILESGVPSRFSGSGSGTEFTLTISSLQPDDFATYYCQQYHSFSSFGGGTRVEIKR
notes: also called 73D3G2 (fully human)

- IFN-γ (pg/mL), MLR, 0.001 µg/mL mAb [1]: 1880 pg/mL
- IFN-γ (pg/mL), MLR, 0.01 µg/mL mAb [1]: 2580 pg/mL
- IFN-γ (pg/mL), MLR, 0.1 µg/mL mAb [1]: 4930 pg/mL
- IFN-γ (pg/mL), MLR, 1 µg/mL mAb [1]: 4280 pg/mL
- IFN-γ (pg/mL), MLR, 10 µg/mL mAb [1]: 5260 pg/mL
- Mean fluorescence intensity [2]: 299
- IC50 (read off the curve) [3]: ~2 nM
- Mean fluorescence intensity [4]: 18.8
- Mean fluorescence intensity [5]: 375
- Mean fluorescence intensity [6]: 116
- Mean fluorescence intensity [7]: 9.85
- Mean fluorescence intensity [9]: 435
- Mean fluorescence intensity [10]: 382
- Mean fluorescence intensity [11]: 335
- Mean fluorescence intensity [12]: 5.31
- Mean fluorescence intensity [13]: 6.61
- IC50 (read off the curve) [14]: ~2 nM
- Mean fluorescence intensity [15]: 380
- IL-2 (pg/mL), MLR, 0.001 µg/mL mAb [22]: 43 pg/mL
- IL-2 (pg/mL), MLR, 0.01 µg/mL mAb [22]: 92.2 pg/mL
- IL-2 (pg/mL), MLR, 0.1 µg/mL mAb [22]: 118 pg/mL
- IL-2 (pg/mL), MLR, 1 µg/mL mAb [22]: 148 pg/mL
- Mean fluorescence intensity [18]: 7.3
- Mean fluorescence intensity [19]: 107
- Mean fluorescence intensity [20]: 23.1
B3: fully human anti-PD-L1 antibody 105C5D7 (antibody, V domains shown)
VH: EVQLVESGGGLVQPGGSLRLSCAASGFTFSSYWMSWVRQAPGKGLEWVANIKQDGNEKYYVDSVKGRFTISRDNAKNSLYLQMNSLRAEDTAVYYCARNIKWGDAFDIWGQGTMVTVSS
VL: DIQMTQSPSSLSASVGDRVTITCRASQSISSYLNWYQQKPGKAPKLLIYAASSLQSGVPSRFSGSGSGTDFTLTISSLQPEDFAIYSCQQSYSIPLTFGGGTKVEIKR
notes: also called 105C5D7 (fully human)
